Target: CTLA4 (cytotoxic T-lymphocyte-associated protein 4) (human) (UniProt P16410)
Experiment: cell-based or functional assay

CTLA4 (cytotoxic T-lymphocyte-associated protein 4) (human), sequence (P16410 36-223): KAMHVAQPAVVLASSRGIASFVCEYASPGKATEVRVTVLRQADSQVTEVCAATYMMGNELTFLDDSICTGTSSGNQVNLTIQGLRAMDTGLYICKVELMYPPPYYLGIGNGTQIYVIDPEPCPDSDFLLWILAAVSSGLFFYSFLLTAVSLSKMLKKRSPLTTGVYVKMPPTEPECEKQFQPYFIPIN

XmAb®20717 (bispecific antibody) showed an IL-2 secretion (ELISA of culture supernatants) from SEB-stimulated human PBMC treated 24 hours, versus anti-RSV isotype-control bivalent antibody XENP15074 of 4.1 fold, an IL-2 secretion (ELISA) from SEB-stimulated human PBMC, versus a mixture of the monovalent component antibodies XENP20111 (anti-PD1 scFv-Fc) and XENP20059 (anti-CTLA4 Fab-Fc) of 1.6 fold and an IL-2 secretion (ELISA) from SEB-stimulated human PBMC, versus the bivalent anti-PD1 antibody XENP16432 of 1.5 fold.
